Reference: patent US20220119534A1 (DRAGONFLY THERAPEUTICS, published 2022)
Substitutions are numbered along the chain they refer to. Names and notes keep the numbering of the source. Values joined by “and” are separate entries in the source; they are usually repeats but may differ in a detail not shown here. Equal values may be shown once.

Key:
mFc-hNKG2D = molecular target: T1, mFc-hNKG2D (human, UniProt P26718 73-216); assay: SPR Biacore 8K 37 C; mFc-hNKG2D captured on anti-mFc chip, TriNKET as analyte; steady state affinity fit; average of 4
T1 construct: extracellular domain; Made in house (Dragonfly Tx); the order of tag and ECD follows the name mFc-hNKG2D; also called mFc-tagged human NKG2D; not shown: mouse Fc tag
T1 sequence (looked up): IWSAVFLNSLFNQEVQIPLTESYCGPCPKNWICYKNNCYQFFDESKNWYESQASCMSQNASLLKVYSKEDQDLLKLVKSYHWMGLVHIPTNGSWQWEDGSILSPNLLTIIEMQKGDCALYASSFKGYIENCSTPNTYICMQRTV

mFc-cNKG2D = molecular target: T2, mFc-cNKG2D (cynomolgus monkey, UniProt P61252 73-216); assay: SPR Biacore 37 C; mFc-tagged cyno NKG2D dimer, TriNKET as analyte; steady state affinity fit
T2 construct: extracellular domain; Made in house (Dragonfly Tx); also called recombinant cyno NKG2D extracellular domain (ECD); mFc-tagged cyno NKG2D dimer; not shown: mouse Fc tag
T2 sequence (looked up): T1 sequence (looked up) with D43N, T133I

[1] = molecular target: T3, Human CLEC12A-His (recombinant, K244 WT) (human, UniProt Q5QGZ9 65-265); assay: SPR, two-state fit (kd1); control sample
T3 construct: Made in house (Dragonfly Tx); also called hCLEC12A; hCLEC12A-His; not shown: His tag
T3 sequence: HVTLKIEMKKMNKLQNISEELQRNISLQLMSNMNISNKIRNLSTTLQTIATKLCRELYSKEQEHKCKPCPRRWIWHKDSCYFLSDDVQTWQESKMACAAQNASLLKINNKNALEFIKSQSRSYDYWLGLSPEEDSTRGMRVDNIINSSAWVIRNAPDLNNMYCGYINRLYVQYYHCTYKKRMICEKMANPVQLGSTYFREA

[2] = molecular target: T4, mFc-hNKG2D (recombinant mFc-tagged human NKG2D dimer) (human, UniProt P26718 73-216); assay: SPR; after forced oxidation
T4 construct: extracellular domain; Made in house; not shown: mouse Fc tag
T4 sequence (looked up): T1 sequence (looked up)

[3] = molecular target: T5, Human CD16a V158 (FcγRIIIa V158) (human, UniProt P08637 17-208, biotinylated); assay: SPR; after forced oxidation
T5 construct: Bought recombinant receptor; also called hCD16aV; hFcγRIIIa V158

[4] = molecular target: T4, mFc-hNKG2D (recombinant mFc-tagged …); assay: SPR; control sample
[5] = molecular target: T5, Human CD16a V158 (FcγRIIIa V158); assay: SPR; control sample
[6] = molecular target: T6, recombinant cynomolgus FcRn (cynomolgus monkey, UniProt Q8SPV9 24-297; Q8SPW0 21-119); assay: SPR 25C, pH 6.0, steady state; pH 6.0; fourth replicate
T6 construct: also called cFcRn; cyno FcRn

recombinant human FcRn = molecular target: T7, recombinant human FcRn (human, UniProt P55899 24-297; P61769 21-119); assay: SPR 25C, pH 6.0, steady state, average; pH 6.0; average of four replicates
T7 construct: also called hFcRn

[7] = molecular target: T6, recombinant cynomolgus FcRn; assay: SPR 25C, pH 6.0, steady state; pH 6.0; second replicate
[8] = molecular target: T8, human CLEC12A expressed on cells (human, UniProt Q5QGZ9 1-265); assay: flow cytometry, hCLEC12A+ Ba/F3
T8 construct: Transduced isogenic cells or endogenous expression on AML cells; also called RMA-hCLEC12A; Ba/F3-hCLEC12A
T8 sequence: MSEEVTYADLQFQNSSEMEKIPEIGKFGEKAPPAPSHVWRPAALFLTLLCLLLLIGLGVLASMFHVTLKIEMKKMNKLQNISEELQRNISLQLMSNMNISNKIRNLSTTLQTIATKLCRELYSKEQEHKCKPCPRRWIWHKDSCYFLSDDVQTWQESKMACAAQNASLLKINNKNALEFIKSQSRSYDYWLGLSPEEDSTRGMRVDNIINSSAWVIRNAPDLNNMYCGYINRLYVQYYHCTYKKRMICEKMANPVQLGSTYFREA

Human CD16b = molecular target: T9, Human CD16b (human, UniProt O75015 17-200, limits assumed, biotinylated); assay: SPR, steady state fit
T9 construct: Bought recombinant receptor; also called hFcγRIIIb

Human CD32a H131 = molecular target: T10, Human CD32a H131 (human, UniProt P12318 36-218, limits assumed, biotinylated); assay: SPR, steady state fit
T10 construct: Bought recombinant receptor; also called hFcγRIIa H131
T10 sequence (looked up): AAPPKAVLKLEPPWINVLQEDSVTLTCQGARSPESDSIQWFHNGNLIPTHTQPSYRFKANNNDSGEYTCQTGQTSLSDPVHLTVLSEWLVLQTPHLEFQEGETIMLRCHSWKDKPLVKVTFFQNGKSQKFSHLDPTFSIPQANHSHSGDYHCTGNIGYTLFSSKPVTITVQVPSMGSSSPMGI

Human CD32a R131 = molecular target: T11, Human CD32a R131 (human, UniProt P12318 36-218, limits assumed, biotinylated); assay: SPR, steady state fit
T11 construct: Bought recombinant receptor; also called hFcγRIIa R131
T11 sequence (looked up): T10 sequence (looked up) with H132R

T5 sequence (P08637 17-208 F176V limits assumed): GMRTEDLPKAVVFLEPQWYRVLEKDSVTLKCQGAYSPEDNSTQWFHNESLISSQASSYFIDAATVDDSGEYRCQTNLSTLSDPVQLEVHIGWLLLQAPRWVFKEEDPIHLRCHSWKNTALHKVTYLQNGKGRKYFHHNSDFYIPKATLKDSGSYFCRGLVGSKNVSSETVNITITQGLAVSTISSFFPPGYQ
T9 sequence (O75015 17-200 limits assumed): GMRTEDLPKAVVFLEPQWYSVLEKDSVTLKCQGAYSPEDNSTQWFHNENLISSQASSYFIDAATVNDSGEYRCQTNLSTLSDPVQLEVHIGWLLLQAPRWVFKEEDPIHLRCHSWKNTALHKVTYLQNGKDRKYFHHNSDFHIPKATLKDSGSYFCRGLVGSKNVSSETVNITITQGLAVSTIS
T6 sequence (Q8SPV9 24-297 limits assumed, chain 1 of 2): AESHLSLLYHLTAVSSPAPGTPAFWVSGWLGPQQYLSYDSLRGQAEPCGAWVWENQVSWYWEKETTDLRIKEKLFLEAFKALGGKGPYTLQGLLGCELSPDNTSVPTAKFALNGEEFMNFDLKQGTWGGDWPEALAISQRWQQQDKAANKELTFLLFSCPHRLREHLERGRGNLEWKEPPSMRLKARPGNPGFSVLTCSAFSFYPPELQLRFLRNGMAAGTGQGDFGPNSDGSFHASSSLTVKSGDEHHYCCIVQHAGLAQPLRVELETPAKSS
T6 sequence (Q8SPW0 21-119 limits assumed, chain 2 of 2): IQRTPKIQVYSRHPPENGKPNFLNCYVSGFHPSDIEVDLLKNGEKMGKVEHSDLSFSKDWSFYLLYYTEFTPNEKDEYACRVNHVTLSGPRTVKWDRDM
T7 sequence (P55899 24-297 limits assumed, chain 1 of 2): as the sequence (Q8SPV9 24-297 limits assumed, chain 1 of 2) above, with D39N, Q44E, S99G, G189S, N190S, M217L, T269S counted along it
T7 sequence (P61769 21-119 limits assumed, chain 2 of 2): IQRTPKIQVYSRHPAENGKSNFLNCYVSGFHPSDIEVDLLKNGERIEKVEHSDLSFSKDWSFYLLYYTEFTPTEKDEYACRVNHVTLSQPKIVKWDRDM

B1: F3'-1602 TriNKET (bispecific antibody, human IgG1, kappa)
chain: QLQLQESGPGLVKPSETLSLTCTVSGFSLTNYGLHWIRQPPGKCLEWIGVIWSGGKTDYNPSLKSRVTISKDTSKNQFSLKLSSVQAADTAVYYCAKYDYDDSLDYWGQGTLVTVSSGGGGSGGGGSGGGGSGGGGSDIQMTQSPSSLSASVGDRVTITCHASQNINFWLSWYQQKPGKAPKLLIYEASNLHTGVPSRFSGSGSGTRFTLTISSLQPEDIATYYCQQSHSYPLTFGCGTKLEIKGSDKTHTCPPCPAPELLGGPSVFLFPPKPKDTLMISRTPEVTCVVVDVSHEDPEVKFNWYVDGVEVHNAKTKPREEQYNSTYRVVSVLTVLHQDWLNGKEYKCKVSNKALPAPIEKTISKAKGQPREPRVYTLPPCRDELTKNQVSLTCLVKGFYPSDIAVEWESNGQPENNYKTTPPVLVSDGSFTLYSKLTVDKSRWQQGNVFSCSVMHEALHNHYTQKSLSLSPG
heavy: EVQLVESGGGLVKPGGSLRLSCAASGFTFSSYSMNWVRQAPGKGLEWVSSISSSSSYIYYADSVKGRFTISRDNAKNSLYLQMNSLRAEDTAVYYCARGAPIGAAAGWFDPWGQGTLVTVSSASTKGPSVFPLAPSSKSTSGGTAALGCLVKDYFPEPVTVSWNSGALTSGVHTFPAVLQSSGLYSLSSVVTVPSSSLGTQTYICNVNHKPSNTKVDKKVEPKSCDKTHTCPPCPAPELLGGPSVFLFPPKPKDTLMISRTPEVTCVVVDVSHEDPEVKFNWYVDGVEVHNAKTKPREEQYNSTYRVVSVLTVLHQDWLNGKEYKCKVSNKALPAPIEKTISKAKGQPREPQVCTLPPSRDELTENQVSLTCLVKGFYPSDIAVEWESNGQPENNYKTTPPVLDSDGSFFLYSWLTVDKSRWQQGNVFSCSVMHEALHNHYTQKSLSLSPG
light: DIQMTQSPSSVSASVGDRVTITCRASQGISSWLAWYQQKPGKAPKLLIYAASSLQSGVPSRFSGSGSGTDFTLTISSLQPEDFATYYCQQGVSFPRTFGGGTKVEIKRTVAAPSVFIFPPSDEQLKSGTASVVCLLNNFYPREAKVQWKVDNALQSGNSQESVTEQDSKDSTYSLSSTLTLSKADYEKHKVYACEVTHQGLSSPVTKSFNRGEC
notes: Trispecific F3' format: CLEC12A scFv-Fc paired with NKG2D Fab-Fc; Stressed and control samples of the stability studies are the same molecule; also called AB0237
Kd (mFc-hNKG2D): 727 nM
Kd (mFc-cNKG2D): 829 nM and 828 nM and 935 nM and 719 nM

B2: AB0089 TriNKET (bispecific antibody, human IgG1, kappa)
chain: B1 chain with S53V, K56A, K71V, Y98G, D101G, S103T, R207D, I220F
heavy: B1 heavy
light: B1 light
notes: F3' format heterodimer of three chains; human IgG1 Fc with EW-RVT and Y349C/S354C mutations; also called AB0089 Lot AB0089-002; CLEC12A TriNKET AB0089
koff [1]: 0.042 s⁻¹
Kd [2]: 762 nM
koff [2]: 0.13 s⁻¹
kon [2]: 171000 M⁻¹ s⁻¹
Kd [3]: 320 nM
koff [3]: 0.0277 s⁻¹
kon [3]: 86500 M⁻¹ s⁻¹
Kd [4]: 797 nM
koff [4]: 0.135 s⁻¹
kon [4]: 169000 M⁻¹ s⁻¹
Kd [5]: 322 nM
koff [5]: 0.0278 s⁻¹
kon [5]: 86400 M⁻¹ s⁻¹

B3: F3'-1602 TriNKET (other)
chain: B1 chain
heavy: B1 heavy
light: B1 light
notes: CLEC12A scFv-Fc, NKG2D A49MI Fab-Fc, human IgG1 Fc; also called AB0237
Kd [6]: 1500 nM
Kd (recombinant human FcRn): 1400 nM
Kd [7]: 1100 nM
EC50 [8]: 2 nM
Max binding MFI [8]: 14700 MFI

B4: AB0192 TriNKET (other)
chain: EVQLVESGGGVVQPGGSLRLSCAASGFTFNAFGMHWVRQAPGKCLEWVAFISSGSTSIYYANTVKGRFTISRDNSKNTLYLQMNSLRAEDTAVYYCARDGYPTGGAMDYWGQGTSVTVSSGGGGSGGGGSGGGGSGGGGSDIQMTQSPSSLSASVGDRVTITCKASQDIYNYLSWFQQKPGKAPKPLIYRANILVSGVPSRFSGSGSGQDYTFTISSLQPEDIATYYCLQFDAFPFTFGCGTKLEIKGSDKTHTCPPCPAPELLGGPSVFLFPPKPKDTLMISRTPEVTCVVVDVSHEDPEVKFNWYVDGVEVHNAKTKPREEQYNSTYRVVSVLTVLHQDWLNGKEYKCKVSNKALPAPIEKTISKAKGQPREPRVYTLPPCRDELTKNQVSLTCLVKGFYPSDIAVEWESNGQPENNYKTTPPVLVSDGSFTLYSKLTVDKSRWQQGNVFSCSVMHEALHNHYTQKSLSLSPG
heavy: B1 heavy
light: B1 light
notes: the condition stands under assay; also called AB0192 Lot AB0192-005
Kd (Human CD16b): 6800 nM and 6000 nM and 5300 nM
Kd (Human CD32a H131): 1040 nM and 921 nM and 1070 nM and 1020 nM
Kd (Human CD32a R131): 1380 nM and 1290 nM and 1800 nM and 1130 nM
